Broadly, the stoichiometry N is the number of molecules, sites or subunits per partner or assembly.

These results are taken from PMC7317449, “On the mechanism of calcium‐dependent activation of NADPH oxidase 5 (NOX5)” (The Febs Journal, 2019).

Series [1] concerns the molecule itself. The series can be described thus: SEC-MALS; Superdex 200 10/300 GL, 100 μL samples, 50 mM Hepes pH 7.0, 25 mM NaCl, 0.5 TCEP, 1 mL/min; monomer to dimer. A general note: In gel filtration, larger molecules generally elute earlier.
Series [2] addresses T1, human calmodulin (human, UniProt P0DP23 1-149).
T1 construct: calmodulin, human; gene a gift from Susan Shao, cloned in pET15b without tag; source: cloned in pET15b without tag, purified following established protocols
Kind of series: crystal structure; cocrystallised: 1078 µM calmodulin, 2800 µM peptide, 30 mM Tris/HCl pH 7.4, 2.5 mM CaCl2, 20 °C, sitting drop; 2.2 Å. The note with it: both partners purified.

B1: EF-domain of hNOX5 (residues 1–161, isoform β) (domain or fragment, human)
chain: MSAEEDARWLRWVTQQFKTIAGEDGEISLQEFKAALHVKESFFAERFFALFDSDRSGTITLQELQEALTLLIHGSPMDKLKFLFQVYDIDGSGSIDPDELRTVLQSCLRESAISLPDEKLDQLTLALFESADADGNGAITFEELRDELQRFPGVMENLTISAAA
notes: NADPH oxidase 5 (NOX5), human, isoform β (v2), EF-domain, residues 1-161; stretch of three alanines from the Not I restriction site, added at the C terminus for cloning reasons (told in words); also called human EF-domain; hEF domain; source: E. coli BL21, purified (Strep column, TEV cleavage, Strep and Nickel columns, Superdex 75); not shown: Strep-tag, N-terminal, cleaved
Turning to B1, the “stoichiometry N” value in series [1] is 2.

B2: peptide 673–691 of human DH-domain (putative calmodulin-binding region of hNOX5) (peptide)
peptide: Ac-DWSKVFQKVAAEKKGKVQV-NH2
notes: methods: peptide 673-691; The limits are told in two ways (673-691 and 674-685); Val691 is named as a contact, which fits 673-691; also called DH peptide; hNOX5 peptide; source: synthetic peptide (Chinepeptide Co, Shanghai)
Turning to B2, the binding result in series [2] was “binds”.
